Data published in patent publication EP4600270A1 (ImnoTech GmbH, dated 2025).

T1: human CD7 (cluster of differentiation 7) (human, UniProt P09564 26-240)
T1 construct: also called CD7 target antigen; CD7 surface marker
T1 sequence: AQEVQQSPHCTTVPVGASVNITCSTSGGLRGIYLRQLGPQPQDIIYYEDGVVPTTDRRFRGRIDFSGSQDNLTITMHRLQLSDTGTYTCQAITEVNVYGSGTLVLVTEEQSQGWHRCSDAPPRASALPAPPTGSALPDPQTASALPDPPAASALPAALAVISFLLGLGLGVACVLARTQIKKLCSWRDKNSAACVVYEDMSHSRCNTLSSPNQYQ


Target: T1, human CD7 (cluster of differentiation 7)
Test: flow cytometry titration on human CD8+ T cells, one-site specific binding fit

Row | Binder | Kd [nM]
1 | SEQ ID NO 13 (VHH, Single domain antibody against human CD7; also called anti-CD7 sdAb) VHH: QVQLQESGGGLVQSGGSLRLSCAASRRIFEINVMGWYRQAPEKQRELVGTITSFGGTNYADSVKGRFTISADYAKNTMYLQMNSLNPEDTAVYYCNAHYFSNDYWGQGTQVTVSS | 3.9
2 | SEQ ID NO 2 (VHH, Single domain antibody against human CD7; also called anti-CD7 sdAb) VHH: QVQLQESGGGLVQAGGSLRLSCAASGRTFSDYLMGWFRQTPGKEREFVAAIYWNAGSTYYADSVKGRFTISRDNTKNTMYLQMNSLKPEDTAVYYCAAGQRGLAYARTYDYDYWGQGTQVTVSS | 6.34
3 | SEQ ID NO 4 (VHH, Single domain antibody against human CD7; also called anti-CD7 sdAb) VHH: QVQLQESGGGLVQAGDSLRLSCAASGLTVSSYGMGWFRQAPGKEREFVVDISRGGGSTSYADSVKGRFTIARDNAKNTLYLQMNSLKPEDTAVYSCAARKYAHYEYWGQGTQVTVSS | 5.66
4 | SEQ ID NO 9 (VHH, Single domain antibody against human CD7; also called anti-CD7 sdAb) VHH: QVQLQESGGGLVQAGDSLRLSCAASGLTVSSYGMGWFRQAPGKEREFVADISRGGGSTLYADSVKGRFTISRDNGKNTLYLQINSLKPEDTAVYSCAARKYAEWDYWGQGTQVTVSS | 4.04
5 | SEQ ID NO 7 (VHH, Single domain antibody against human CD7; also called anti-CD7 sdAb) VHH: QVQLQESGGGLVQAGDSLRLSCAASGLTVSMYGMGWFRQAPGKEREFVADISRGGGSTSYTDSVKGRFTISRDNAKNTLYLQMNSLKPEDTAVYSCAARKYAHYEYRGQGTQVTVSS | 11
6 | SEQ ID NO 8 (VHH, Single domain antibody against human CD7; also called anti-CD7 sdAb) VHH: QVQLQESGGGLVQTGDSLRLSCAASGLTVSSYGMGWFRQAPGKEREFVADISRGGGSTLYADSVKGRFTISRDNLKNTLYLQMNSLKPEDTAVYSCAARKYAEWNYWGQGTQVTVSS | 8.16
